Source: doi:10.1101/2025.02.16.638521 (bioRxiv, 2025)

What was measured:
[1] = target: T1, Themis^1-563 (truncated Themis, residues 1-563) (human, UniProt Q8N1K5); experiment: cryo-EM structure
[2] = target: tagless Themis^1-563 (co-expressed with His-tagged Grb2^FL) (human, UniProt Q8N1K5); experiment: cryo-EM structure
[3] = target: Themis^1-563-Grb2^FL complex (co-expressed, pre-formed) (human, UniProt Q8N1K5;P62993); experiment: SEC-MALS
[4] = target: T1, Themis^1-563 (truncated Themis, …); experiment: BLI
[5] = target: full-length Grb2 (Grb2^FL) (human, UniProt P62993 1-217); experiment: SEC-MALS
Chain of full-length Grb2 (Grb2^FL) (P62993 whole entry): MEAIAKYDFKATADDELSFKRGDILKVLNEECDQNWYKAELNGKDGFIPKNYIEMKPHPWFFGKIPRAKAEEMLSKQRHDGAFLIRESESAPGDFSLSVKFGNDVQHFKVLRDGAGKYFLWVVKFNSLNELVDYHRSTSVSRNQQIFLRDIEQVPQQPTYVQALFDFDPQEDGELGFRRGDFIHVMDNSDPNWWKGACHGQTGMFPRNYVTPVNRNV

Chain of Themis^1-563-Grb2^FL complex (co-expressed, pre-formed) (P62993 whole entry, the tested form may be a part, one chain of several): as the sequence (P62993 whole entry) above

B1: PMb256 (Pro-Macrobody of Nb256) (VHH)
VHH: QVQLQESGGGLVQAGGSLRLSCAASGRTFSTYAMGWFRQAPGKEREFVAAILWSDGSTYYADSVKGRFTISRDNAKNTVYLQMNSLKPEDTAVYYCAADYTGVRYDYWGQGTQVTVPP
**Q.** Does B1 bind [1]?
**A.** binds

**Q.** Does B1 bind [2]?
**A.** binds

B2: Nb256 (Themis-specific single domain VHH camelid antibody fragment) (VHH)
VHH: B1 VHH
**Q.** Does B2 bind [3]?
**A.** binds

**Q.** Does B2 bind [4]?
**A.** binds

B3: tagless Themis^1-563 (co-expressed with His-tagged Grb2^FL) (domain or fragment)
chain: MALSLEEFVHSLDLRTLPRVLEIQAGIYLEGSIYEMFGNECCFSTGEVIKITGLKVKKIIAEICEQIEGCESLQPFELPMNFPGLFKIVADKTPYLTMEEITRTIHIGPSRLGHPCFYHQKDIKLENLIIKQGEQIMLNSVEEIDGEIMVSCAVARNHQTHSFNLPLSQEGEFYECEDERIYTLKEIVEWKIPKNRTRTVNLTDFSNKWDSTNPFPKDFYGTLILKPVYEIQGVMKFRKDIIRILPSLDVEVKDITDSYDANWFLQLLSTEDLFEMTSKEFPIVTEVIEAPEGNHLPQSILQPGKTIVIHKKYQASRILASEIRSNFPKRHFLIPTSYKGKFKRRPREFPTAYDLEIAKSEKEPLHVVATKAFHSPHDKLSSVSVGDQFLVHQSETTEVLCEGIKKVVNVLACEKILKKSYEAALLPLYMEGGFVEVIHDKKQYPISELCKQFRLPFNVKVSVRDLSIEEDVLAATPGLQLEEDITDSYLLISDFANPTECWEIPVGRLNMTVQLVSNFSRDAEPFLVRTLVEEITEEQYYMMRRYESSASHPPPRPPKHPSV
**Q.** For B3, which “stoichiometry N” value [5] is on record?
**A.** 1
